Each block holds one binder with its values, some of them ahead of it.
Columns and labels:
[1] = biological target: T1, human FcRn beta-2-microglobulin complex, biotinylated, coupled to streptavidin Sepharose (human, UniProt P55899 24-297; P61769 21-119, limits assumed, biotinylated (Bulk BIRA kit, Avidity)); test: FcRn affinity chromatography, pH gradient 5.5 to 8.8; dye-labelled antibody
T1 construct: Secreted complex purified from the supernatant; also called neonatal Fc receptor; human FcRn chromatography column
Experimental: (§1) The UV light absorption at a wavelength of 280 nm was used for detection. The column was regenerated for 10 minutes using 20% buffer B after each run.

[2] = biological target: T1, human FcRn beta-2-microglobulin …; test: FcRn affinity chromatography, pH gradient 5.5 to 8.8; unlabelled antibody
Experimental: as §1

relative retention time on FcRn affinity column [1]: 1.18 relative to anti-Her3 antibody standard
B1: anti-human phospho tau 422 antibody, labelled with pHAb dye (antibody, human IgG1, kappa, L234A L235A)
heavy: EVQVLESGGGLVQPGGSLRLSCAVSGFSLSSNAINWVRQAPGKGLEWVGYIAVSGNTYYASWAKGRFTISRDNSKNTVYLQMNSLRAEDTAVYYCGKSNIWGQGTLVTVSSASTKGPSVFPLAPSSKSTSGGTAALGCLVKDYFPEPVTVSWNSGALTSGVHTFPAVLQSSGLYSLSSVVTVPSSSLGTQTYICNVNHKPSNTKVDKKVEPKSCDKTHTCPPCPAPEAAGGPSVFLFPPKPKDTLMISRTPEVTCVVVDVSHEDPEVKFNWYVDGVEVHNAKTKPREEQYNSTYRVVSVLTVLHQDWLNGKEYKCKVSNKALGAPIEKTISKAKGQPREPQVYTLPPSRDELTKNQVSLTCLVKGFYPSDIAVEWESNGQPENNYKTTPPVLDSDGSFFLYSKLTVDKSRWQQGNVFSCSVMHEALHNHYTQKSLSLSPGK
light: AQVMTQSPSSLSASVGDRVTITCRSSQSVRTNRLAWFQQKPGQPPKRLIYSASTLDYGVPSRFSGSGSGTEFTLTISSLQPEDFATYYCLGYFDSSADIVAFGGGTKVEIKRTVAAPSVFIFPPSDEQLKSGTASVVCLLNNFYPREAKVQWKVDNALQSGNSQESVTEQDSKDSTYSLSSTLTLSKADYEKHKVYACEVTHQGLSSPVTKSFNRGEC
modifications: pHAb dye on a sulfo DBCO-PEG4-amine linker, clicked to the azide-modified N-glycan of the Fc-region
notes: also called anti-pTau antibody; anti-human p(422)Tau antibody

relative retention time on FcRn affinity column [2]: 1.13 relative to anti-Her3 antibody standard
B2: anti-human phospho tau 422 antibody (antibody, human IgG1, kappa, L234A L235A)
heavy: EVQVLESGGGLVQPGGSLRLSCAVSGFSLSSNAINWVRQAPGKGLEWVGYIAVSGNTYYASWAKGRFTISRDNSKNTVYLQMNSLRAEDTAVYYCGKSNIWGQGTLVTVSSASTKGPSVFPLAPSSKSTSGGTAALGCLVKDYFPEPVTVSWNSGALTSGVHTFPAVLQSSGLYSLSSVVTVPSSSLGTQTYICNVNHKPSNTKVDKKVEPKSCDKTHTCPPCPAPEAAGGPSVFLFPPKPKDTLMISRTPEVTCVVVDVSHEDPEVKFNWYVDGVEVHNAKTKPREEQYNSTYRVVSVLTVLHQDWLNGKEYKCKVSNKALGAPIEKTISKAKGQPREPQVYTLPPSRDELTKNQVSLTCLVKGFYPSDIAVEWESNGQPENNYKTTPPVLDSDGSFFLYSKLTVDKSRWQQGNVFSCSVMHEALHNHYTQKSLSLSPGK
light: B1 light
notes: IgG1, unlabelled; also called anti-pTau antibody; anti-human p(422)Tau antibody

Further lines, the binder ahead of its results:

B3: Ixekizumab (antibody)
chain 1: not shown
chain 2: DIVMTQTPLSLSVTPGQPASISCRSSRSLVHSRGNTYLHWYLQKPGQSPQLLIYKVSNRFIGVPDRFSGSGSGTDFTLKISRVEAEDVGVYYCSQSTHLPFTFGQGTKLEIKRTVAAPSVFIFPPSDEQLKSGTASVVCLLNNFYPREAKVQWKVDNALQSGNSQESVTEQDSKDSTYSLSSTLTLSKADYEKHKVYACEVTHQGLSSPVTKSFNRGEC
relative retention time on FcRn affinity column [2]: 1.42 relative to anti-Her3 antibody standard

B4: Vedolizumab (antibody)
chain 1: not shown
chain 2: DVVMTQSPLSLPVTPGEPASISCRSSQSLAKSYGNTYLSWYLQKPGQSPQLLIYGISNRFSGVPDRFSGSGSGTDFTLKISRVEAEDVGVYYCLQGTHQPYTFGQGTKVEIKRTVAAPSVFIFPPSDEQLKSGTASVVCLLNNFYPREAKVQWKVDNALQSGNSQESVTEQDSKDSTYSLSSTLTLSKADYEKHKVYACEVTHQGLSSPVTKSFNRGEC
relative retention time on FcRn affinity column [2]: 0.33 relative to anti-Her3 antibody standard

Reference: patent US20230194547A1 (Hoffmann-La Roche, published 2023)
